# Results from IntAct's records for PubMed 18029035.
# B1: Coiled-coil domain-containing protein 50 (Homo sapiens), Q8IVM0 (parent)
# chain: MAEVSIDQSKLPGVKEVCRDFAVLEDHTLAHSLQEQEIEHHLASNVQRNRLVQHDLQVAKQLQEEDLKAQAQLQKRYKDLEQQDCEIAQEIQEKLAIEAERRRIQEKKDEDIARLLQEKELQEEKKRKKHFPEFPATRAYADSYYYEDGGMKPRVMKEAVSTPSRMAHRDQEWYDAEIARKLQEEELLATQVDMRAAQVAQDEEIARLLMAEEKKAYKKAKEREKSSLDKRKQDPEWKPKTAKAANSKSKESDEPHHSKNERPARPPPPIMTDGEDADYTHFTNQQSSTRHFSKSESSHKGFHYKH
# Variants of: B1
# Settings: with ubb_human UBB
row,effect of a mutation on the interaction,Variant
1,decreasing interaction,MAEVSIDQSKLPGVKEVCRDFAVLEDHTLAHSLQEQEIEHHLASNVQRNRLVQHDLQVAKQLQEEDLKAQAQLQKRYKDLEQQDCEIAQEIQEKLAIEAERRRIQEKKDEDIARLPQEKELQEEKKRKKHFPEFPATRAYADSYYYEDGGMKPRVMKEAVSTPSRMAHRDQEWYDAEIARKLQEEELLATQVDMRAAQVAQDEEIARLLMAEEKKAYKKAKEREKSSLDKRKQDPEWKPKTAKAANSKSKESDEPHHSKNERPARPPPPIMTDGEDADYTHFTNQQSSTRHFSKSESSHKGFHYKH [L116P]
